B1: VpreB antibody 5-2D7 (recombinant mouse-human chimeric IgG1/kappa) (antibody, V domains shown)
VH: QVQLQQPGAELVKPGASVKLSCKASGYTFTSYWMQWVKQRPGQGLEWIGEINPSNGRINYNEKFKSKATLTVDISSSTAYMQLSSLTSEDSAVYYCARSGLLDYWGQGTTLTDSS
VL: DVLMTQTPLSLPVSLGDQASISCRSSQSLIHSNGNTYLHWSLQKPGQSPKLLIYKVSNRFSGVPDRFSGSGSGTDFTLKISSVEAEDLGVYFCSQSTYVPLTFGAGTKLELKR
notes: also called mAb 5-2D7
B2: VpreB antibody 5-9B12 (recombinant mouse-human chimeric IgG1/kappa) (antibody, V domains shown)
VH: EVQLEESGPSLVKPSQTLSLTCSVTGDSITSDYWTWIRKFPGNKLEYMGYISYSGRTYYNPSLKSRISITRDTSKKQYYLQLNSVTTEDTATYYCARERYYYGSLDYWGQGTTLTVSS
VL: B1 VL with L3V, I30V, S41Y, S82R, S96T, Y98H, L101P, A105G, L111I
notes: also called mAb 5-9B12
B3: VpreB antibody 5-11D1 (recombinant mouse-human chimeric IgG1/kappa) (antibody, V domains shown)
VH: B2 VH with K75R, K76N, N83S
VL: B1 VL with I30V, S41Y, S82R, S96T, Y98H, L101P, A105G, L111I
notes: also called mAb 5-11D1
B4: VpreB antibody 5-14A8 (recombinant mouse-human chimeric IgG1/kappa) (antibody, V domains shown)
VH: B2 VH with K44I, Y53S, T57I, K76N, N83S
VL: B1 VL with S28G, I30V, S41Y, S82R, S96T, Y98H, L101P, A105G, L111I
notes: also called mAb 5-14A8
B5: VpreB antibody 5-4A9 (recombinant mouse-human chimeric IgG1/kappa) (antibody, V domains shown)
VH: B1 VH with Q1E, P7S, K19Q, I58N, S66R, I74T, D113V
VL: B1 VL with I30V, S41Y, K79T, S82R
notes: also called mAb 5-4A9
B6: VpreB antibody 5-14H5 (recombinant mouse-human chimeric IgG1/kappa) (antibody, V domains shown)
VH: B1 VH with Y32N, Q35N, I74K, D113V
VL: B1 VL with I30V, S41Y, S82R, V99L, K108R
notes: also called mAb 5-14H5
B7: lambda-5 antibody 4-15E6 (recombinant mouse-human chimeric IgG1/kappa) (antibody, V domains shown)
VH: EVQLEESGAELVRSGASVKLSCTASGFNIKDYYLHWVKQRPEQGLEWIGWIDPENGNTDYAPKFQGKATMTADTSSNTAYLQLSSLTSEDTAVYYCNEGYYDYDTDSAMDYWGQGTSVTVSS
VL: B1 VL with I30V, N33D, N35I, S41Y, S82R, Y98R, L101W, A105G, L111I
notes: also called mAb 4-15E6
B8: lambda-5 antibody 4-12G1 (recombinant mouse-human chimeric IgG1/kappa) (antibody, V domains shown)
VH: B7 VH with N57A, T69S, S88F, T105A
VL: B1 VL with I30V, N33D, N35I, S41Y, S82R, T97A, Y98R, L101W, A105G, L111I
notes: also called mAb 4-12G1
B9: lambda-5 antibody 4-5G11 (recombinant mouse-human chimeric IgG1/kappa) (antibody)
heavy: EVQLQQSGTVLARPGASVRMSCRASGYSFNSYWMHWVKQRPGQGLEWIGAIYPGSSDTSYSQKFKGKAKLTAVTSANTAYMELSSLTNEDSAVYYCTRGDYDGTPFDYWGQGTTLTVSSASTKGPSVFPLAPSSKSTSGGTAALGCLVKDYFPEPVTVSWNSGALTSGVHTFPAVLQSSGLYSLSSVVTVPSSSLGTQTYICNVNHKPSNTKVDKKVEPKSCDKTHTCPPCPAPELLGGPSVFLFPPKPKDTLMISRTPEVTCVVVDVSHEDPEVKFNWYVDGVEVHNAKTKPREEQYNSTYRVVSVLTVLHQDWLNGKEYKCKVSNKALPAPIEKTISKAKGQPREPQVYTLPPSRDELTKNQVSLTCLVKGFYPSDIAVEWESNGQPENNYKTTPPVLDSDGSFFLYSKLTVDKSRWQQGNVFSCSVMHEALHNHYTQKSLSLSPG
light: DILMTQSPLTLSVTIGQPASISCKSGQSLLDSDGKTYLNWLLQRPGQSPKRLIYLVSKLHSGVPDRFTGSGSGTDFTLKISRVEAEDLGVYYCWQGTHFPLTFGAGTKLELKRTVAAPSVFIFPPSDEQLKSGTASVVCLLNNFYPREAKVQWKVDNALQSGNSQESVTEQDSKDSTYSLSSTLTLSKADYEKHKVYACEVTHQGLSSPVTKSFNRGEC
notes: also called mAb 4-5G11
B10: lambda-5 antibody 4-9H8 (recombinant mouse-human chimeric IgG1/kappa) (antibody)
heavy: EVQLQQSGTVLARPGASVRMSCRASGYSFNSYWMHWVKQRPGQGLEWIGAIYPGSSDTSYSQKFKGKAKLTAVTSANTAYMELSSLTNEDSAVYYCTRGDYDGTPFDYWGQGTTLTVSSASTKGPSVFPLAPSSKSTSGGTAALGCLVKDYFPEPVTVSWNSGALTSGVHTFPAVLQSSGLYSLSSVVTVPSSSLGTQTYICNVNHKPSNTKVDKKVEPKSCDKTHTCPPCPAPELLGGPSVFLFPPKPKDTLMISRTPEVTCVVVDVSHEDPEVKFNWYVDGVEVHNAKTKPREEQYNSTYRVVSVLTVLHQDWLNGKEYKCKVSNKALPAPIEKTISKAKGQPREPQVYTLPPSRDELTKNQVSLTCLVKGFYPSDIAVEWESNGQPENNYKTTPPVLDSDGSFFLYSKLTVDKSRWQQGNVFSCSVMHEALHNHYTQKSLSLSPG
light: B9 light with L3V
notes: also called mAb 4-9H8
B11: lambda-5 antibody 4-19A9 (recombinant mouse-human chimeric IgG1/kappa) (antibody, V domains shown)
VH: EVQLQQSGTVLARPGASVKMSCKASGYTFTSYWMHWVKQRPGQGLEWIGAIYPGNSDTSYNQKFKGKARLTAVTSASTAYMELSSLTNEDSAVYYCTRADYDGTPFDYWGQGTTLTVSS
VL: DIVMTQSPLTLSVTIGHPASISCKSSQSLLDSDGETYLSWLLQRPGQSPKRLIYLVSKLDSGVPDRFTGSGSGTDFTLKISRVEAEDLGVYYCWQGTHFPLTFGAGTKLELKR
notes: also called mAb 4-19A9
B12: lambda-5 antibody 4-6D12 (recombinant mouse-human chimeric IgG1/kappa) (antibody, V domains shown)
VH: B11 VH with S31N, R69K, Y95F
VL: DILMTQSPLTLSVTIGHPASISCKSSQSLLDSDGETYLSWLLQRPGQSPERLIYLVSKLDSGVPDRFTGSGSGTDFTLKISRVEAEDLGVYYCWQGTHFPLTFGAGTKLELKR
notes: also called mAb 4-6D12
B13: lambda-5 antibody 4-17G9 (recombinant mouse-human chimeric IgG1/kappa) (antibody, V domains shown)
VH: B11 VH with K23Q, S31N, K63N, R69E, S77T, N88D
VL: B12 VL with L3V, E50K, L109V
notes: also called mAb 4-17G9
B14: lambda-5 antibody 4-7C1 (recombinant mouse-human chimeric IgG1/kappa) (antibody, V domains shown)
VH: B11 VH with K23R, A24P, G44D, R69K
VL: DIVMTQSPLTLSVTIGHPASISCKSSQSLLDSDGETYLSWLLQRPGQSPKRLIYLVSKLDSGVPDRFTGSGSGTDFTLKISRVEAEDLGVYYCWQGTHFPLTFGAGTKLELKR
notes: also called mAb 4-7C1
B15: lambda-5 antibody 4-7A6 (recombinant mouse-human chimeric IgG1/kappa) (antibody, V domains shown)
VH: B11 VH with A16T, P53L, S56T, R69K, T78S
VL: B12 VL with I2V, L3V, S7N, P8A, K24R, E50K
notes: also called mAb 4-7A6
B16: lambda-5 antibody 4-18G6 (recombinant mouse-human chimeric IgG1/kappa) (antibody, V domains shown)
VH: B11 VH with S31N, I51V, N61S, K65T, R69K, E82D
VL: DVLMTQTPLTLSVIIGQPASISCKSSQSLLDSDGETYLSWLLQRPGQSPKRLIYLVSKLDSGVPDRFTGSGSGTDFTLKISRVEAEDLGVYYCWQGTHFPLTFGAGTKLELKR
notes: also called mAb 4-18G6
B17: lambda-5 antibody 4-20D2 (recombinant mouse-human chimeric IgG1/kappa) (antibody, V domains shown)
VH: B11 VH with T28S, R69K, A99G
VL: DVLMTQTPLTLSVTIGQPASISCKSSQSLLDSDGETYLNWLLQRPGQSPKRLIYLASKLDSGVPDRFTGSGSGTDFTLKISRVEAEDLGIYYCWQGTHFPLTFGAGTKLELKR
notes: also called mAb 4-20D2

Numbering of substitutions follows the chain as printed.

The target in the first test is T1, human VpreB (on the pre-BCR-expressing human pre-B cell line NALM-6) (human, UniProt P12018 20-145).
T1 construct: On NALM-6 cells VpreB stands in the pre-BCR together with lambda-5 and the mu heavy chain; also called VPREB1; VpreB subunit of the SLC of human pre-BCR
T1 sequence: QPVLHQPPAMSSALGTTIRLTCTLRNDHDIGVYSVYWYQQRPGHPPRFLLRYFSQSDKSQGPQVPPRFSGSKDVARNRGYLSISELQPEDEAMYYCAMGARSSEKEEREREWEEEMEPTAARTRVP
Put plainly: flow cytometry, saturation binding of recombinant chimeric mAb to NALM-6 cells. As for the experimental part: (§1) Avidity of each VpreB antibody was determined by measuring saturation binding kinetics of antibody to NALM-6 cells using flow cytometry as follows. The cells were stained with a 3-fold descending titration of recombinant, chimeric VpreB antibody ranging from 133 nM to 0.002 nM. A PE/Cy5-labeled mouse anti-human IgG1 secondary antibody (Southern Biotech #9042-13) was used to detect cell-bound anti-VpreB or an IgG1 isotype control antibody (PAS-ISO6H4). The 50% effective concentration (EC₅₀) was calculated using GraphPad Prism software. Antibodies 5-4A9, 5-11D1, 5-14A8, and 5-14H5 all bound to VpreB-expressing NALM-6 cells with unusually strong binding avidity (<400 pM; FIG. 13, Table 16).
The binding avidity of the VpreB mAbs 5-2D7 and 5-9B12 was also determined by measuring saturation binding kinetics of recombinant, chimeric mAb to NALM-6 cells using flow cytometry as described above. Both mAbs bound to VpreB-expressing NALM-6 cells with unusually strong avidity (<400 pM; FIG. 15, Table 17).
As for B1, the EC50 is 0.34 nM.
Take B2: the EC50 was found to be 0.12 nM.

The next test concerns the target T1, human VpreB (on the pre-BCR-expressing …). The test is described as above. The source holds these as a separate data set. The procedure: as §1
On to B3, for which the EC50 was 0.143 nM.
The same measure, in the same setting: as for B4, the figure is 0.227 nM; as for B5, 0.396 nM.
For the molecule B6, the EC50 stood at 0.115 nM.

The target is the same in the next test. The description is as above. This is another data set of the same source.
Regarding B1, the EC50 is below 0.4 nM.
Still for that read-out and setting: the figure for B3 is below 0.4 nM; for B4 it is below 0.4 nM; for B5 it is below 0.4 nM.
In the case of B2, the EC50 is below 0.4 nM.
On the same count and under the same terms, as for B6, the figure is below 0.4 nM.

For another test, the target named is T2, human lambda-5 (on the pre-BCR-expressing human pre-B cell line NALM-6) (human, UniProt P15814 38-213).
T2 construct: On NALM-6 cells lambda-5 stands in the pre-BCR together with VpreB and the mu heavy chain; also called IGLL1; lambda-5 subunit of the SLC of human pre-BCR
T2 sequence (P15814 38-213 limits assumed): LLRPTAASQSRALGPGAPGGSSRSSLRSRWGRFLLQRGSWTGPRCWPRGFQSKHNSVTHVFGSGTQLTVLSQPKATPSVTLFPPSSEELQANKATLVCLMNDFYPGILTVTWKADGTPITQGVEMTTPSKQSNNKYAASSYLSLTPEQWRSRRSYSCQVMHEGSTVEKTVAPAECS
The test is described as above.
As to B7, the EC50 is below 30 nM.
As for B8, the concentration for a half-maximal effect (EC50) was below 30 nM.
As to B9, the EC50 is below 30 nM.
For B10, the EC50 was below 30 nM.
Take B11: the EC50 was below 30 nM.
On to B12, for which the EC50 was below 30 nM.
As to B13, the concentration giving a half-maximal response (EC50) is below 30 nM.
In the case of B14, the EC50 was below 30 nM.
In the case of B15, the concentration for a half-maximal effect (EC50) was below 30 nM.
Consider B16, for which the EC50 is below 30 nM.
For B17, the half-maximal effective concentration (EC50) is below 30 nM.

The target in a further test is T2, human lambda-5 (on the …). The test is described as above. This is another data set of the same source. The procedure:
as §1
The avidity of each lambda-5 antibody was determined by measuring saturation binding kinetics of recombinant, chimeric mAb to NALM-6 cells using flow cytometry as described for the VpreB antibody saturation binding kinetics experiment. Antibodies 4-6D12, 4-5G11, 4-7A6, 4-7C1, 4-9H8, 4-12G1, 4-15E6, 4-17G9, 4-18G6, 4-19A9, and 4-20D2 all bound to VpreB- expressing NALM-6 cells with strong avidity (<30 nM; FIG. 16, Table 18).
For the molecule B7, the EC50 was 3.7 nM.
Take B8: the EC50 came out at 4.5 nM.
For B9, the EC50 is 6.2 nM.
With B10, the EC50 is 7.4 nM.
As to B11, the EC50 was 8.1 nM.
Consider B12, for which the EC50 was 1.9 nM.
As to B13, the EC50 is 9 nM.
Take B14: the EC50 was 8.4 nM.
B15: the EC50 was 2.3 nM.
For the molecule B16, the EC50 was determined as 10.2 nM.
As for B17, the EC50 came out at 26.3 nM.
